pKd: −log10 of the molar value.
Target: Human fibrillin-2 recombinant C-terminal half (rFBN2-C) (human) (UniProt P35556)
Experiment: SPR; FBN2-Ct amine-coupled to a CM5 chip (1700 RU), ADAMTS6 constructs as analytes; Biacore 3000, 25 °C, 10 mM Hepes pH 7.4, 0.15 M NaCl, 2 mM CaCl2, 0.005% or 0.05% P20, 30 μl/min; steady state affinity method

Chain of Recombinant human ADAMTS6-4TSR (residues 840-1117) (Q9UKP5 840-1117): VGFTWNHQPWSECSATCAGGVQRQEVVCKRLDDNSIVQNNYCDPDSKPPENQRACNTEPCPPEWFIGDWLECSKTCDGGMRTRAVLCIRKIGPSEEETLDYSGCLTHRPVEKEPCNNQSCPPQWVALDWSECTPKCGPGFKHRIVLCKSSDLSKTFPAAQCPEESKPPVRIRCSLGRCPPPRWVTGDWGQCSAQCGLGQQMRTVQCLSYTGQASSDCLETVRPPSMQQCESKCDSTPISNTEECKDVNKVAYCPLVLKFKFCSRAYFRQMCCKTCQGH
Chain of Recombinant human ADAMTS6-S4TSR (residues 717-1117) (Q9UKP5 717-1117): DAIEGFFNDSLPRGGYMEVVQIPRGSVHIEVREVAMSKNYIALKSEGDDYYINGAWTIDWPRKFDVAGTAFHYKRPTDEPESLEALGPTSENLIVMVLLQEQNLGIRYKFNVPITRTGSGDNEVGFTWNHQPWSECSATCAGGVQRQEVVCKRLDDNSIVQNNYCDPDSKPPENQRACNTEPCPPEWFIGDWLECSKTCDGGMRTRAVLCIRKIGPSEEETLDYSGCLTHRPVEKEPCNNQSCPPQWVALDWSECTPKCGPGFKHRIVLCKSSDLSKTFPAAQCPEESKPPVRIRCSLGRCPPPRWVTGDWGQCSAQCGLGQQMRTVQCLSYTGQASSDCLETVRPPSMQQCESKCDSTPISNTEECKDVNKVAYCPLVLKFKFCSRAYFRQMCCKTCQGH
Chain of Recombinant human ADAMTS6-Ct (residues 558-1117) (Q9UKP5 558-1117): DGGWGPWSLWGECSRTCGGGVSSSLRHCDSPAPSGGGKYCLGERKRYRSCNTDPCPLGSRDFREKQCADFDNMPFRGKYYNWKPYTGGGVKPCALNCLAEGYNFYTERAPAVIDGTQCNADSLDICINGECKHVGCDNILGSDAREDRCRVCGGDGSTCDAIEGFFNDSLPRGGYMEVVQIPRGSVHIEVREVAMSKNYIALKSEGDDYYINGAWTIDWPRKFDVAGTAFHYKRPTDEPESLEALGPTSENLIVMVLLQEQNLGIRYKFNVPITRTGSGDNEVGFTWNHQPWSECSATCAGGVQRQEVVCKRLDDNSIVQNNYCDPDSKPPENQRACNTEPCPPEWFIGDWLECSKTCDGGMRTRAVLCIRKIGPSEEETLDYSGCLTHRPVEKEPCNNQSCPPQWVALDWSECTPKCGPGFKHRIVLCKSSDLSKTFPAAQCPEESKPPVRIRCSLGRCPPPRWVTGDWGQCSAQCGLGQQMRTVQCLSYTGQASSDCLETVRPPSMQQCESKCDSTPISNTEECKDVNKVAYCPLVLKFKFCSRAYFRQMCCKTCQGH

Substance	pKd
Recombinant human ADAMTS6-4TSR (residues 840-1117) (from UniProt Q9UKP5 840-1117) (domain or fragment)	6.91
Recombinant human ADAMTS6-Ct (residues 558-1117) (from UniProt Q9UKP5 558-1117) (domain or fragment)	6.36
Recombinant human ADAMTS6-S4TSR (residues 717-1117) (from UniProt Q9UKP5 717-1117) (domain or fragment)	6.94

Reference: paper PMC9064305
